# Assay results from FireProtDB (doi:10.1021/bi000415x).
# B1: Protein P-30, P22069 (parent)
# chain: QDWLTFQKKHITNTRDVDCDNIMSTNLFHCKDKNTFIYSRPEPVKAICKGIIASKNVLTTSEFYLSDCNVTSRPCKYKLKKSTNKFCVTCENQAPVHFVGVGSC
# Variants of: B1
# Details: Lithobates pipiens; pH 2; 25 °C; Thermal; DSC; MES 100 mM; reversible: yes; structure 1ONC; whole UniProt chain shown
Variant,ddG of mutation (higher = less stable) [kcal/mol],unfolding free energy [kcal/mol]
QDWLTFQKKHITNTRDVDCDNILSTNLFHCKDKNTFIYSRPEPVKAICKGIIASKNVLTTSEFYLSDCNVTSRPCKYKLKKSTNKFCVTCENQAPVHFVGVGSC,2.51,6.33

# Same assay, conditions: Lithobates pipiens; pH 2; Thermal; DSC; MES 100 mM; reversible: yes; structure 1ONC; whole UniProt chain shown
Variant,Tm [°C],"change of melting temperature, mutant - wild type (higher = more stable) [°C]",heat capacity change of unfolding [kcal/mol/K],unfolding enthalpy (calorimetric) [kcal/mol],unfolding enthalpy (van 't Hoff) [kcal/mol]
QDWLTFQKKHITNTRDVDCDNILSTNLFHCKDKNTFIYSRPEPVKAICKGIIASKNVLTTSEFYLSDCNVTSRPCKYKLKKSTNKFCVTCENQAPVHFVGVGSC,62.2,-7.3,1.24,84.8,88.4

# Same assay, conditions: Lithobates pipiens; pH 2.5; 25 °C; Thermal; DSC; MES 100 mM; reversible: yes; structure 1ONC; whole UniProt chain shown
Variant,ddG of mutation (higher = less stable) [kcal/mol],unfolding free energy [kcal/mol]
QDWLTFQKKHITNTRDVDCDNILSTNLFHCKDKNTFIYSRPEPVKAICKGIIASKNVLTTSEFYLSDCNVTSRPCKYKLKKSTNKFCVTCENQAPVHFVGVGSC,2.29,7.24

# Same assay, conditions: Lithobates pipiens; pH 2.5; Thermal; DSC; MES 100 mM; reversible: yes; structure 1ONC; whole UniProt chain shown
Variant,Tm [°C],"change of melting temperature, mutant - wild type (higher = more stable) [°C]",heat capacity change of unfolding [kcal/mol/K],unfolding enthalpy (calorimetric) [kcal/mol],unfolding enthalpy (van 't Hoff) [kcal/mol]
QDWLTFQKKHITNTRDVDCDNILSTNLFHCKDKNTFIYSRPEPVKAICKGIIASKNVLTTSEFYLSDCNVTSRPCKYKLKKSTNKFCVTCENQAPVHFVGVGSC,65.8,-6.8,1.51,90.8,87.3

# Same assay, conditions: Lithobates pipiens; pH 3; 25 °C; Thermal; DSC; MES 100 mM; reversible: yes; structure 1ONC; whole UniProt chain shown
Variant,ddG of mutation (higher = less stable) [kcal/mol],unfolding free energy [kcal/mol]
QDWLTFQKKHITNTRDVDCDNILSTNLFHCKDKNTFIYSRPEPVKAICKGIIASKNVLTTSEFYLSDCNVTSRPCKYKLKKSTNKFCVTCENQAPVHFVGVGSC,2.77,8.03

# Same assay, conditions: Lithobates pipiens; pH 3; Thermal; DSC; MES 100 mM; reversible: yes; structure 1ONC; whole UniProt chain shown
Variant,Tm [°C],"change of melting temperature, mutant - wild type (higher = more stable) [°C]",heat capacity change of unfolding [kcal/mol/K],unfolding enthalpy (calorimetric) [kcal/mol],unfolding enthalpy (van 't Hoff) [kcal/mol]
QDWLTFQKKHITNTRDVDCDNILSTNLFHCKDKNTFIYSRPEPVKAICKGIIASKNVLTTSEFYLSDCNVTSRPCKYKLKKSTNKFCVTCENQAPVHFVGVGSC,68.9,-7.6,1.39,95.6,94.7

# Same assay, conditions: Lithobates pipiens; pH 3.5; 25 °C; Thermal; DSC; MES 100 mM; reversible: yes; structure 1ONC; whole UniProt chain shown
Variant,ddG of mutation (higher = less stable) [kcal/mol],unfolding free energy [kcal/mol]
QDWLTFQKKHITNTRDVDCDNILSTNLFHCKDKNTFIYSRPEPVKAICKGIIASKNVLTTSEFYLSDCNVTSRPCKYKLKKSTNKFCVTCENQAPVHFVGVGSC,2.89,9.32

# Same assay, conditions: Lithobates pipiens; pH 3.5; Thermal; DSC; MES 100 mM; reversible: yes; structure 1ONC; whole UniProt chain shown
Variant,Tm [°C],"change of melting temperature, mutant - wild type (higher = more stable) [°C]",heat capacity change of unfolding [kcal/mol/K],unfolding enthalpy (calorimetric) [kcal/mol],unfolding enthalpy (van 't Hoff) [kcal/mol]
QDWLTFQKKHITNTRDVDCDNILSTNLFHCKDKNTFIYSRPEPVKAICKGIIASKNVLTTSEFYLSDCNVTSRPCKYKLKKSTNKFCVTCENQAPVHFVGVGSC,74.7,-6.9,1.48,103,99.8

# Same assay, conditions: Lithobates pipiens; pH 4; Thermal; DSC; MES 100 mM; reversible: yes; structure 1ONC; whole UniProt chain shown
Variant,Tm [°C],"change of melting temperature, mutant - wild type (higher = more stable) [°C]",heat capacity change of unfolding [kcal/mol/K],unfolding enthalpy (calorimetric) [kcal/mol],unfolding enthalpy (van 't Hoff) [kcal/mol]
QDWLTFQKKHITNTRDVDCDNILSTNLFHCKDKNTFIYSRPEPVKAICKGIIASKNVLTTSEFYLSDCNVTSRPCKYKLKKSTNKFCVTCENQAPVHFVGVGSC,80.7,-6.1,1.34,112,115

# Same assay, conditions: Lithobates pipiens; pH 5; 25 °C; Thermal; DSC; MES 100 mM; reversible: yes; structure 1ONC; whole UniProt chain shown
row,Variant,ddG of mutation (higher = less stable) [kcal/mol]
1,QDWLTFQKKHITNTRDVDCDNILSTNLFHCKDKNTFIYSRPEPVKAICKGIIASKNVLTTSEFYLSDCNVTSRPCKYKLKKSTNKFCVTCENQAPVHFVGVGSC,2.65
